Measurements as given in US20210403579A1 (DELINIA, published 2021).
Changes are numbered by the printed parent chain.

Biological target: T1, Human ST2 (human, UniProt Q01638 19-328, limits assumed)
T1 construct: also called human ST2 protein; Interleukin 1 receptor-like 1
T1 sequence (looked up): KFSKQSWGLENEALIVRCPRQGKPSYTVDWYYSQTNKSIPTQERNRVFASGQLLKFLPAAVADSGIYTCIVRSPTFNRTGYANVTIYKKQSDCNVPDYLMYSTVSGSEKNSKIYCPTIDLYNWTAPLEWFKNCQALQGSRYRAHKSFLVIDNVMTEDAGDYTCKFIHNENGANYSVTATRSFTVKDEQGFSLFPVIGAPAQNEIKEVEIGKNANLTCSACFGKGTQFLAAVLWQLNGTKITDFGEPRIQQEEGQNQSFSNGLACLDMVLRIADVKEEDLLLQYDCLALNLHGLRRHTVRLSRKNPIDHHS
Test: SPR (Carterra), antibody immobilized, ST2 analyte
Protocol: Binding of the reformatted human ST2 antibodies to the human and mouse ST2 proteins was evaluated by surface plasmon resonance (SPR), using a high throughput antibody screening and characterization platform from Carterra (Salt Lake City, Utah).

B1: Human ST2 IgG1 Antibody 91 (antibody, V domains shown)
VH: EVQLLESGGGLVKPGGSLRLSCAASGFTFSSYWMSWVRQAPGKGLEWVSVIYSGGSTYYADSVKGRFTISRDDSKNTLYLQMNSLKTEDTAVYYCARGLGWFDPWGQGTLVTVSS
VL: DIQMTQSPSSLSASVGDRVTITCQANQHIGNSLNWYQQKPGKAPKLLIFAASRLQSGVPSRFSGSGSGTDFTLTISSLQPEDFATYYCQQSYGTPLTFGGGTKVEIKR
notes: IgG1; also called ST2 Antibody 91
Kd: 256 nM
koff: 0.041 s⁻¹
kon: 160000 M⁻¹ s⁻¹

B2: Human ST2 IgG1 Antibody 80 (antibody, V domains shown)
VH: QVQLVQSGAEVKKPGSSVKVSCKASGGTFSSYAISWVRQAPGQGLEWMGGIIPIFGTANYAQKFQGRVTITADESTSTAYMELSSLRSEDTAVYYCARVMVAGTGYYFDYWGQGTLVTVSS
VL: DIVMTQSPLSLPVTPGEPASISCRSSQSLLHSNGYNYLDWYLQKPGQSPQLLIYGASSLQSGVPDRFSGSGSGTDFTLKISRVEAEDVGVYYCMQGLHTPPTFGQGTKLEIKR
notes: IgG1; also called ST2 Antibody 80
Kd: 842 nM
koff: 0.056 s⁻¹
kon: 67000 M⁻¹ s⁻¹

B3: Human ST2 IgG1 Antibody 95 (antibody, V domains shown)
VH: QVQLVQSGAEVKKPGSSVKVSCKASGYTFTSYGISWVRQAPGQGLEWMGGIIPIFGTANYAQKFQGRVTITADESTSTAYMELSSLRSEDTAVYYCARVMARRDGYNFKGGWYFDLWGRGTLVTVSS
VL: B2 VL with G55A, G96A, H98E
notes: IgG1; also called ST2 Antibody 95
Kd: 446 nM
koff: 0.0086 s⁻¹
kon: 19000 M⁻¹ s⁻¹

B4: Human ST2 IgG1 Antibody 96 (antibody, V domains shown)
VH: QVQLVQSGAEVKKPGSSVKVSCKASGFSFSTYGVAWVRQAPGQGLEWMGGFVPIIGSANYAQKFQGRVTITADESTSTAYMELSSLRSEDTAVYYCARDYGGNLDYWGQGTLVTVSS
VL: B2 VL with G55A, L97A, T99W, L109V
notes: IgG1; also called ST2 Antibody 96
Kd: 337 nM
koff: 0.097 s⁻¹
kon: 290000 M⁻¹ s⁻¹

B5: Human ST2 IgG1 Antibody 93 (antibody, V domains shown)
VH: QVQLVQSGAEVKKPGSSVKVSCKASGGTFSTYAISWVRQAPGQGLEWMGGIIPSFNAPSYAQKFQGRVTITADKSTSTAYMELSSLRSEDTAVYYCARVVPAAIVGWYFDLWGRGTLVTVSS
VL: B2 VL with G55A, S58T, S61T, G96A, H98Q, L109V
notes: IgG1; also called ST2 Antibody 93
Kd: 728 nM
koff: 0.11 s⁻¹
kon: 150000 M⁻¹ s⁻¹

B6: Human ST2 IgG1 Antibody 90 (antibody, V domains shown)
VH: QVQLVQSGAEVKKPGSSVKVSCKASGYTFSDFSIHWVRQAPGQGLEWMGGMLPISHIAHYARKFQGRVTITADESTSTAYMELSSLRSEDTAVYYCARGGSSGWFEVWGQGTTVTVSS
VL: B2 VL with G55A, S58T, L97A, T99W
notes: IgG1; also called ST2 Antibody 90
Kd: 970 nM
koff: 0.17 s⁻¹
kon: 170000 M⁻¹ s⁻¹

B7: Human ST2 IgG1 Antibody 84 (antibody, V domains shown)
VH: B2 VH with I34L, V99A, M100A, V101A, G105A, Y106W, Y110L, Q113R
VL: not shown
notes: IgG1; also called ST2 Antibody 84
Kd: 125 nM
koff: 0.0019 s⁻¹
kon: 15000 M⁻¹ s⁻¹

B8: Human ST2 IgG1 Antibody 76 (antibody, V domains shown)
VH: QVQLVQSGAEVKKPGSSVKVSCKASGYTFTDYYMHWVRQAPGQGLEWMGVIIPVLGAAKYAQKFQGRVTITADESTSTAYMELSSLRSEDTAVYYCAKGWGAFDIWGQGTMVTVSS
VL: EIVMTQSPATLSVSPGERATLSCRASQSVSSYLAWYQQKPGQAPRLLIYGASTRASGIPARFSGSGSGTEFTLTISSLQSEDFAVYYCQQYYSYPWTFGQGTKVEIKR
notes: IgG1; also called ST2 Antibody 76
Kd: 133 nM
koff: 0.11 s⁻¹
kon: 820000 M⁻¹ s⁻¹

B9: Human ST2 IgG1 Antibody 86 (antibody, V domains shown)
VH: QVQLVQSGAEVKKPGSSVKVSCKASGGTFSNYAISWVRQAPGQGLEWMGGIIPIFGTANYAQKFQGRVTITADESTSTAYMELSSLRSEDTAVYYCAKDLGGWFNLFDPWGQGTLVTVSS
VL: B8 VL with S28G, S56T, Y92R, Y94F, W96L, Q100G
notes: IgG1; also called ST2 Antibody 86
Kd: 41 nM
koff: 0.029 s⁻¹
kon: 720000 M⁻¹ s⁻¹

B10: Human ST2 IgG1 Antibody 94 (antibody, V domains shown)
VH: QVQLVQSGAEVKKPGSSVKVSCKASGGILNSYAITWVRQAPGQGLEWMGRIIPILGIANYAQKFQGRVTITADESTSTAYMELSSLRSEDTAVYYCVENESGPLFDYWGQGTLVTVSS
VL: EIVMTQSPATLSVSPGERATLSCRASQSVYSSYLAWYQQKPGQAPRLLIYGTSSRAAGIPARFSGSGSGTEFTLTISSLQSEDFAVYYCQQYYSTPYTFGQGTKVEIKR
notes: IgG1; also called ST2 Antibody 94
Kd: 483 nM
koff: 0.062 s⁻¹
kon: 130000 M⁻¹ s⁻¹

B11: Human ST2 IgG1 Antibody 78 (antibody, V domains shown)
VH: EVQLLESGGGLVQPGGSLRLSCAASDFNFKNAWMSWVRQAPGKGLEWVSAISGNGAGTYYADSVKGRFTISRDNSKNTLYLQMNSLRAEDTAVYYCARVGETGAFDIWGQGTTVTVSS
VL: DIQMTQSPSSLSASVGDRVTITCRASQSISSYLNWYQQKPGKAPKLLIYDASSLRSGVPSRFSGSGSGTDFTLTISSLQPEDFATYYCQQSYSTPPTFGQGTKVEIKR
notes: IgG1; also called ST2 Antibody 78
Kd: 154 nM
koff: 0.082 s⁻¹
kon: 530000 M⁻¹ s⁻¹

B12: Human ST2 IgG1 Antibody 88 (antibody, V domains shown)
VH: EVQLLESGGGLVQPGGSLRLSCAASGFTFSSYWMSWVRQAPGKGLEWVSSISSSGGYLYYADSVKGRFTISRDNSKNTLYLQMNSLRAEDTAVYYCARDWGLTPDYWGQGTLVTVSS
VL: not shown
notes: IgG1; also called ST2 Antibody 88
Kd: 543 nM
koff: 0.13 s⁻¹
kon: 240000 M⁻¹ s⁻¹

B13: Human ST2 IgG1 Antibody 85 (antibody, V domains shown)
VH: EVQLLESGGGLVQPGGSLRLSCAASGFSFSTYWMHWVRQAPGKGLEWVSGISGGGIYTYYADSVKGRFTISRDNSKNTLYLQMNSLRAEDTAVYYCASMTYGDYYGMDVWGQGTTVTVSS
VL: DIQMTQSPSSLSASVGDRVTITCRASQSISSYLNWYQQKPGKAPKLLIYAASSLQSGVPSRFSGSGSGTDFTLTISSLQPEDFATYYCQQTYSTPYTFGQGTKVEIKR
notes: IgG1; also called ST2 Antibody 85
Kd: 554 nM
koff: 0.068 s⁻¹
kon: 120000 M⁻¹ s⁻¹

B14: Human ST2 IgG1 Antibody 81 (antibody, V domains shown)
VH: EVQLLESGGGLVKPGGSLRLSCAASGFTFSSYWMSWVRQAPGKGLEWVSSISSSGNYMYYAVSVKGRFTISRDDSKNTLYLQMNSLKTEDTAVYYCATETYSYSSMDVWGQGTTVTVSS
VL: DIQMTQSPSSLSASVGDRVTITCRASQSISSYLNWYQQKPGKAPKLLIYDASNLETGVPSRFSGSGSGTDFTLTISSLQPEDFATYYCQQSYGTPLTFGGGTKVDIKR
notes: IgG1; also called ST2 Antibody 81
Kd: 126 nM
koff: 0.026 s⁻¹
kon: 200000 M⁻¹ s⁻¹

B15: Human ST2 IgG1 Antibody 98 (antibody, V domains shown)
VH: EVQLLESGGGLVKPGGSLRLSCAASGFTFSSYWMSWVRQAPGKGLEWVSAISGTAINTYYADSVKGRFTISRDDSKNTLYLQMNSLKTEDTAVYYCARVRRDSSGGGAFDIWGQGTMVTVSS
VL: B14 VL with S28G, S31N, Y32N, D50A, N53S, E55Q, G93S, L96P, G100Q, D105E
notes: IgG1; also called ST2 Antibody 98
Kd: 95 nM
koff: 0.025 s⁻¹
kon: 270000 M⁻¹ s⁻¹

B16: Human ST2 IgG1 Antibody 82 (antibody, V domains shown)
VH: QVQLVQSGAEVKKPGASVKVSCKASGYTFTENEMHWVRQAPGQGLEWMGWISAYNGDTNYAQKFQGRVTMTRDTSTSTVYMELSSLRSEDTAVYYCAKEVRLDDDEMWYFDLWGRGTLVTVSS
VL: B14 VL with S28D, S30N, S31N, Y32F, N34V, S91A, G93S, T94F, D105E
notes: IgG1; also called ST2 Antibody 82
Kd: 204 nM
koff: 0.003 s⁻¹
kon: 15000 M⁻¹ s⁻¹

B17: Human ST2 IgG1 Antibody 87 (antibody, V domains shown)
VH: QVQLVQSGAEVKKPGASVKVSCKASGYTFAGQYMHWVRQAPGQGLEWMGNINPSGGSTSYAQRFQGRVTMTRDTSTSTVYMELSSLRSEDTAVYYCARGDYSETYYYYMDVWGKGTTVTVSS
VL: B14 VL with S28H, S30N, Y32N, D50G, N53S, E55Q, T56S, G93T, L96F, G100P
notes: IgG1; also called ST2 Antibody 87
Kd: 642 nM
koff: 0.018 s⁻¹
kon: 27000 M⁻¹ s⁻¹

B18: Human ST2 IgG1 Antibody 89 (antibody, V domains shown)
VH: B15 VH
VL: B14 VL with S28G, S31N, Y32N, D50A, N53S, E55Q, G93S, L96P, G100Q, D105E
notes: IgG1; also called ST2 Antibody 89
Kd: 102 nM
koff: 0.024 s⁻¹
kon: 240000 M⁻¹ s⁻¹

B19: Human ST2 IgG1 Antibody 83 (antibody, V domains shown)
VH: EVQLLESGGGLVKPGGSLRLSCAASGFTFSSYWMSWVRQAPGKGLEWVSAIGTAGDTYYPGSVKGRFTISRDDSKNTLYLQMNSLKTEDTAVYYCAILRRDKVWPFDYWGQGTLVTVSS
VL: B14 VL with Y32H, N34H, D50A, N53S, E55Q, T56S, G93S, T94S, L96V, D105E
notes: IgG1; also called ST2 Antibody 83
Kd: 70 nM
koff: 0.018 s⁻¹
kon: 260000 M⁻¹ s⁻¹

B20: Human ST2 IgG1 Antibody 77 (antibody, V domains shown)
VH: QVQLVQSGAEVKKPGSSVKVSCKASGYTFSDHYIHWVRQAPGQGLEWMGGIIPILGTANYAQKFQGRVTITADESTSTAYMELSSLRSEDTAVYYCATDIAVAGTGFDYWGQGTLVTVSS
VL: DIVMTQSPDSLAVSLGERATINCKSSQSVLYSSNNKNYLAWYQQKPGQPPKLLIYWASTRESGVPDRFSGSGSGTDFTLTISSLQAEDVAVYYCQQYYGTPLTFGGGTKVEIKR
notes: IgG1; also called ST2 Antibody 77
Kd: 377 nM
koff: 0.099 s⁻¹
kon: 260000 M⁻¹ s⁻¹

B21: Human ST2 IgG1 Antibody 92 (antibody, V domains shown)
VH: QVQLVQSGAEVKKPGSSVKVSCKASGGSFSGQAVNWVRQAPGQGLEWMGGFVSLFGTANYAQKFQGRVTITADESTSTAYMELSSLRSEDTAVYYCARDREGLGWYFDLWGRGTLVTVSS
VL: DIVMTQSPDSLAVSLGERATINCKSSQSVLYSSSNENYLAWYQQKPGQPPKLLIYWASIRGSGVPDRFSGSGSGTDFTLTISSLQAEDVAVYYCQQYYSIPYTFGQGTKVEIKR
notes: IgG1; also called ST2 Antibody 92
Kd: 662 nM
koff: 0.13 s⁻¹
kon: 200000 M⁻¹ s⁻¹
